Consider 25 sequences from the supplement of paper PMC9732359.

± gives the uncertainty stated by the source.

This series can be described thus: protein stability index of a GFP-peptide fusion (yeast GPS) (PSI 1-4); higher = more stable; sorted into four equal gates, so the index is relative within each strain. Put shortly: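 The protein stability index of a peptide was calculated by multiplying its read frequency in each gate by that gate's number and adding the products. The peptides were tiled 17-residue stretches of yeast proteins, fused downstream of GFP on a Cherry-expressing plasmid and carried in yeast as a pooled library. Mid-log cultures in leucine-free medium were sorted into four equal gates by GFP/Cherry ratio, and each gate's plasmids were PCR-amplified and Illumina-sequenced.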

For EDGPRPFKVFLDIGLQR [RPL5], the protein stability index (doa10∆) came to 3 ± 0.068, the protein stability index (pdr5∆) was determined as 3.17 ± 0.058, the protein stability index (san1∆) was 3.06 ± 0.052 and the protein stability index (ubr1∆) came to 3.04 ± 0.033.
As to FLLSAMTMASKSLEVVN [NSL1], the protein stability index is, setting by setting: (doa10∆) 1.4 ± 0.08; (pdr5∆) 1.45 ± 0.069; (san1∆) 1.54 ± 0.15; (ubr1∆) 1.61 ± 0.047.
For the sequence LKPEIEKLTSKSLDEQL [LRP1], the protein stability index runs as follows: (doa10∆) 3.22 ± 0.083; (pdr5∆) 3.26 ± 0.07; (san1∆) 2.85 ± 0.077; (ubr1∆) 2.88 ± 0.063.
LLGEGESKLKIDPDTKA [RPB11] displayed a protein stability index (doa10∆) of 2.93 ± 0.19 and a protein stability index (ubr1∆) of 3.14 ± 0.24.
INKQRVPLSDNAIIEAN [RPL7A] yielded a protein stability index (doa10∆) of 2.6 ± 0.058, a protein stability index (pdr5∆) of 2.61 ± 0.064, a protein stability index (san1∆) of 2.51 ± 0.066 and a protein stability index (ubr1∆) of 2.54 ± 0.053.
As for FTLLDFKKQMQTIMKMG [SRP54], the protein stability index reads like this: (doa10∆) 1.36 ± 0.13; (pdr5∆) 2.67 ± 0.15; (san1∆) 1.42 ± 0.17; (ubr1∆) 2.71 ± 0.17.
In turn, SYDVENVNSRNQLVEPN [SRB5] registered a protein stability index (doa10∆) of 3.21 ± 0.12, a protein stability index (pdr5∆) of 3.26 ± 0.14, a protein stability index (san1∆) of 3.42 ± 0.13 and a protein stability index (ubr1∆) of 3.34 ± 0.12.
Consider KRGEVVKIIRKSETSGR [RPB5], for which the protein stability index is 3.04 ± 0.082 (doa10∆), 3.17 ± 0.057 (pdr5∆), 3.2 ± 0.064 (san1∆) and 3.05 ± 0.058 (ubr1∆).
YSRITLIIDDPSKGQSL [RPP1]: the protein stability index reads like this: (doa10∆) 2.09 ± 0.056; (pdr5∆) 2.44 ± 0.063; (san1∆) 2.42 ± 0.048; (ubr1∆) 2.78 ± 0.053.
For NFLVFQGDVEQIAAQSP [SMC1] the same measures were 2.49 ± 0.1, 2.51 ± 0.092, 2.68 ± 0.14 and 2.61 ± 0.094.
For HHELIKVKHDSQPFIKF [SSN2] the same measures were 3.14 ± 0.085, 2.71 ± 0.099, 2.86 ± 0.11 and 2.88 ± 0.06.
MAPFRQDSILIIYPRSQ [ARP9]: the protein stability index runs as follows: (doa10∆) 2.41 ± 0.28; (pdr5∆) 2.69 ± 0.17; (san1∆) 2.82 ± 0.083; (ubr1∆) 2.58 ± 0.076.
As to KAAISFGAKPEEQKSSD [YJL041W/NSP1], the protein stability index is 3.12 ± 0.13 (doa10∆), 2.94 ± 0.2 (pdr5∆), 3.5 ± 0.17 (san1∆) and 3.1 ± 0.12 (ubr1∆).
As for VDPEQEAHNKALNQFKR [RPT4], the protein stability index (doa10∆) came out at 3.37 ± 0.19, the protein stability index (pdr5∆) was found to be 3.26 ± 0.13, the protein stability index (san1∆) amounted to 3.41 ± 0.11 and the protein stability index (ubr1∆) was 3.02 ± 0.14.
On the same counts, the results for GLFPFESYKPSVQLPDM [SWI3] are 3.05 ± 0.09, 2.88 ± 0.081, 2.96 ± 0.067 and 2.81 ± 0.07.
On the same counts, the results for VTSMEAAREKKIRELEA [YIL149C/MLP2] are 2.97 ± 0.072, 2.9 ± 0.1, 2.92 ± 0.07 and 2.86 ± 0.063.
For LVNIRTQTSKEQEIENN [ITC1] the same measures were 2.9 ± 0.054, 3.05 ± 0.067, 2.9 ± 0.061 and 3.06 ± 0.066.
Consider QNCWSLINDSYINDVHL [SSN8], for which the protein stability index worked out at 3.35 ± 0.063 (doa10∆), 3.22 ± 0.069 (pdr5∆), 3.34 ± 0.054 (san1∆) and 3.23 ± 0.055 (ubr1∆).
Regarding DVFDTLATYCPRVQGFY [GRR1], the protein stability index is, setting by setting: (doa10∆) 2.65 ± 0.075; (pdr5∆) 2.26 ± 0.054; (san1∆) 2.36 ± 0.078; (ubr1∆) 2.6 ± 0.055.
For LKVQKLSRPSLPKIKTV [RPL35A], the protein stability index was found to be 2.41 ± 0.062 (doa10∆), 3.11 ± 0.072 (pdr5∆), 3.17 ± 0.057 (san1∆) and 3.17 ± 0.059 (ubr1∆).
For NNNGNPGTTSTGNNNNI [GAL11], the protein stability index came to 3.18 ± 0.12 (doa10∆), 3.34 ± 0.075 (pdr5∆), 3.18 ± 0.061 (san1∆) and 3.23 ± 0.07 (ubr1∆).
Turning to LNIKPLLDAGCKVVAEM [SKP1], the protein stability index was determined as 2.44 ± 0.083 (doa10∆), 2.51 ± 0.081 (pdr5∆), 1.85 ± 0.1 (san1∆) and 2.47 ± 0.054 (ubr1∆).
In the case of QEWLANLKLISVSLVDE [SIR4], the protein stability index runs as follows: (doa10∆) 2.77 ± 0.057; (pdr5∆) 1.87 ± 0.047; (san1∆) 2.46 ± 0.056; (ubr1∆) 1.67 ± 0.039.
Sequence ISPESVFGTLGELIKVN [SMC3] had a protein stability index (doa10∆) of 2.15 ± 0.06, a protein stability index (pdr5∆) of 2.25 ± 0.078, a protein stability index (san1∆) of 1.84 ± 0.096 and a protein stability index (ubr1∆) of 1.86 ± 0.036.
On the same counts, the results for TLLVIRRLHKVLRPFLL [SNF2] are 1.26 ± 0.12, 1.34 ± 0.093, 1.34 ± 0.16 and 1.09 ± 0.08.
